Experimental findings from a protein production outcome set (Wang et al. 2014) are described below.

A short description of this data set: label from the status in PepcDB records.
For the sequence “MIEKKKNRSKLKREAILAAAKKAYQDDGVQNTSMDKLASLAQVSKRTVYNHFSSKEALVMELLSDLWQNSMADIDIQFSENVSIQDQLERLLLAELNVIGAQSYLDLAKVAFGHFFYKPDELQLQVEKMAEQETALSRWLQLMMDTKKLTIEDKHKAGVQLHSLLKGSAFWPQLVGMRAVLSSEEKEQLVTETADMFLSRYLKR”, the protein production entry is reported as “not failed”.

“MPASETQGGPPPDDHTDAEPPPPLPEQSDFADAVLAAMPDPVFVFGPQNTLAWGNPPLRQAVGHSAAALRGKSLPELFGKGDAAAVEQALDAVRAGRDTATAEVALLPREGPPRPCTFTARPLSGDVGPPNCVVGIAR”: the protein production result is on record as “failed”.

Take “MAPDQAKPAPFRDQFHRVLGVIRRGKLLILACVLLVVAPTIVFLQQATPRYTANAAVLIEAPDATDSLLDRSDMSRTRLNDLMITTEAEVLGSTPLARRVIDKLGLDQDPEFNARLRKPTAFQRVTFWLNPINWIPDGWRAGRKDEATMTPKVREELQRARVTATFLGRLSVKPKRRSFVIDLEFTATSREKSALIVNTLADLYVFDRLEAGFDETKRVNEWLAQRLESLRGDVALAEAAVETYRAENGLRPVGERQGTVANQQLTELNSRLVLARADLAQKQARLDQVRSLSRGGGVATASDVLQSSLIQQLRQREAEVRSALSEAEKTYGERHPKIIGMRADLGQLQSSIGGEIGKIASSAEGDVEIAAIGVRTLEREIVGLRQEGDVQGGAIVRLRELERQADSSRSLYEAFLSRFKRNAEQEQIQRANARLLSPADIPASPSYPRKIPILLVMMVVGFGLGIGLVFLVEGLDGTVHSTEELEALVGLPPLAVIPVVRGRGGGAVVLARPRAPIAHAFRNLRTALTLNGEETRRRIVMVSSSVPKEGKSFVSLGLALTYARAGERVLLIDADVHRSSLAATIGIDGTRGLAQVLRGEATLDQVVTRPPGMDLDFLAAGEASAQEELFDASTLGALLSEPASRYDRIIIDTAPVLAVADARIVAGVADQVIYLVRWGSTQQTAVRNGIKLLRDVRAPLAGMVLSQVDVRRHAVYGYGDYGASYGRYQEYYAE”: the protein production result was “failed”.

Turning to “MAVIADPETAQGFRLAGLEGYGASSAEEAQSLLETLVERGGYALVAVDEALLSDPERAVERLMRGRDLPVLLPIAGLKEAFQGHDVEGYMRELVRKTIGFDIKLLEHHHHHH”, the protein production result is “failed”.

For “SAPFDVIGPQEPILAVVGEDAELPCRLSPNVSAKGMELRWFREKVSPAVFVSREGQEQEGEEMAEYRGRVSLVEDHIAEGSVAVRIQEVKASDDGEYRCFFRQDENYEEAIVHLKVAA”, the protein production entry is “failed”.

Consider “LNTNQLFAYLNRGDIAEFKFSPLFTTLFFPNVATFSTQNIMLDTLDIEEVTMSAFCSPMVGSQVQRDKGYETSTIKPGYMKPKHEIDPTKTIMRMAGEDPAQLNDPTYRRMRLITGNMRRQINAIKARVEWLAVNAVTTGKNIIEGEGIERYEIDWKIPEKNIIEQADGKKWSEQDKETHYPIYDIELYADQAGCPANVMIMGAEVWRTLRSFKKFRELYDLSRGSESAAELACKNLGEVVSFKGYLGDLALIVYSGKYTDSDGTEKYFLEPDLLVLGNTNNKGLVAYGAIMDQEAVRTGATQNMFYPKNWIEDGDPAIEYVQTHSAPQPVPADIRKFVTVKIA”, for which the protein production result is given as “failed”.

Turning to “MQKCSLITVISLSVLMLAGCTTTYTMTTRTGEIIETQGKPEVDTATGMTKYADAYGYHRVIKTSEIVQTTEGASKLDWLEHHHHHH”, the protein production result is reported as “failed”.

With “MTVSQDILLTDHFKQWIEIFKKGKVSDGTYRKYLYTLSVLKKHFSTATIKTMNRVKYQEMLNEFAEGHSDSSVKQINVHVRASLENLLDDFIIKNDFTKGLEHHHHHH”, the protein production entry was “failed”.

Consider “MKNQLIDRLTRYTTIDTQSDPKSTTTPSTEKQWDLLHLLEKELQQLGLPTDLDENGYLFATLESNIDVDVPTVGFLAHVDTSPDFNASNVKPQIIENYDGKPYKLGNTKRVLDPKVFPELNSLVGHTLMVTDGTSLLGADDKAGIVEIMEAICYLQEHPEIKHGTIRIGFTPDEEIGRGPHKFDVDRFNADFAYTMDGSQYGELQYESFNAAEAVITCHGVNVHPGSAKNAMVNAIRLGEQFDSLLPDSEVPERTEGYEGFYHLMNFEGTVEKATLQYIIRDHDKKQFELRKKRILEIRDDINAHFENYPVKVDISDQYFNMAEKILPLPHIIDIPKRVFAKLDIPANTEPIRGGTDGSQLSFMGLPTPNIFTGCGNFHGPYEYASIDVMEKAVQVIIGIVEDIAENH”, for which the protein production result is on record as “failed”.

Consider “MIFRTFIVVLCLIPCFSYGSEAYLNAAEKQFESLLELLPEDEKREWKHRDFEEVMDYSNKLDELKKTAEYIRNQSDSSDVDGILAFSFLADAIQYELDLKTSLVNDLGLHLYRSYEINNVNPVRKAIEAELVALQNASGALQLQSKLTKYFKLQREIAELSKNPPTKMTLEYRPQDNAWDSDPELVKKYVLFDWLSALSKLKEKLYELQKIKDSFASFNYLRLKDPIAFVSLGAQLAILLVAVAGYLISYTEKPSIKVVASLVAASMLLSVFLVFVSSSTIFNLIVQASIPSLFIAYWVYRNSHNKKVQPTADGRG”, for which the protein production result is “failed”.

For the sequence “MEDIIFGKRSNVFDVNPENTVFVLIAGTSEVSTVPGITSAGATPELTRLTPAIDSEIIGEGKCLSSKDPPMTPEGIPTPAIVTKAILSLTNIRYIIVNGGFYAKPKTPFIETGLKPSNNPAVKTAIEDLDAAIHAGEHIGRLLDGVFENIILAESVPGGTTTAYAVLKAIGINAKTSSSMKEDPFSIKEKIAEMSFRRKLEKSPLGAVKEYGDNMMAVSLGISSSVKRSKIIFGGGTQMATVMYLDRLINGMRDRYISTTGWVYYHRTELFSDLGLSDYLAVSAMDFSGMKHPGLRYYQYGHVREGTGMGAAFLLARLMNFEAEAIYKSVDDFYEQFI”, the protein production entry was “failed”.

Regarding “MKIIKRAIISLIILSLLISITMSNASASEELYYSVEYKNTATFNKLVKKKSLNVVYNIPELHVAQIKMTKMHANALANYKNDIKYINATCSTCITSEKTIDRTSNESLFSRQWDMNKITNNGASYDDLPKHANTKIAIIDTGVMKNHDDLKNNFSTDSKNLVPLNGFRGTEPEETGDVHDVNDRKGHGTMVSGQTSANGKLIGVAPNNKFTMYRVFGSKKTELLWVSKAIVQAANDGNQVINISVGSYIILDKNDHQTFRKDEKVEYDALQKAINYAKKKKSIVVAAAGNDGIDVNDKQKLKLQREYQGNGEVKDVPASMDNVVTVGSTDQKSNLSEFSNFGMNYTDIAAPGGSFAYLNQFGVDKWMNEGYMHKENILTTANNGRYIYQAGTSLATPKVSGALALIIDKYHLEKHPDKAIELLYQHGTSKNNKPFSRYGHGELDVYKALNVANQKAS”, the protein production entry is “not failed”.

Regarding “MGHHHHHHSHMHGWTWSVPKFMKRMKVPDYKDKAVFGVPLIVHVQRTGQPLPQSIQQALRYLRSNCLDQVGLFRKSGVKSRIHALRQMNENFPENVNYEDQSAYDVADMVKQFFRDLPEPLFTNKLSETFLHIYQYVSKEQRLQAVQAAILLLADENREVLQTLLCFLNDVVNLVEENQMTPMNLAVCLAPSLFHLNLL”, the protein production entry is reported as “failed”.

Regarding “MAEVHNQLEIKFRLTDGSDIGPKAFPDATTVSALKETVISEWPREKENGPKTVKEVKLISAGKVLENSKTVKDYRSPVSNLAGAVTTMHVIIQAPVTEKEKKPKGDPKMNKCVCSVM”, the protein production result was “not failed”.

Consider “SPEPYPPLVIETPAMEAAVTALIDRVFGPGRFAKSSERLREGNTLLADCSFVSLRDGAPVGCVRMWPVTIGGEPVAFLGPLAVDPDERSAGLGQALVEAACEAARAAGWRAVLLVGDGPYFGRVGFTNAHTAGVIMPGPVDQRRVLLLPLRDGG”, for which the protein production result is reported as “failed”.

As to “DDLIFYKGVDGRYLGANKAFCDFFGKESMEGLSDADILDAEQLRLTQKSDEEVVRFRKNIRLEYGGGHPLRGRFFFSITKSPILLRGKVVGILGIARD”, the protein production result is given as “failed”.

In the case of “ISLAVLAVSIIFLGVTVIQNKKKIDPALKELSSVTQAMQKQIEGLKTETELLTQKQKKIQQDVQIKKYTLQQTAAEVKEVPQAVKEVWQA”, the protein production entry is “not failed”.

“MTSVESTAHIEKRFIELKNIWFIIASLCYVAAIGFIIAYFVGGYSPYISIAVMWGCIGSLDMILGILRRKKEK”: the protein production entry was “failed”.

Consider “MNNKFKDFFGFGDNDSYEERDAYEEHYDEQEEMQNSNRPTNSRDSNVVSIKAGQAGSGPSKIVLYEPRVYSDAKEVAQNLLNQRAIIINFSRMDDASARRVVDFITGTVYALNGEIQRIGDKIFLATPPKFETDGKITELLDKKDTLG”, for which the protein production result was “failed”.

Regarding “MSKAQKRKRLNKYDGESKTPANKSTVDGGNPYPTLLRPTAEECRDVRDALLSLHGFPPEFANYRRQRLRSFSAVDDHDTQCNLKSETLNETEEESVLDGLVKILLSQNTTESNSQRAFASLKATFPKWDDVLNAESKSIENAIRCGGLAPKKAVCIKNILNRLQNERGRLCLEYLRGLSVEEVKTELSHFKGVGPKTVSCVLMFNLQHNDFPVDTHVFEIAKALGWVPKTADRNKTYVHLNRKIPDELKFDLNCLLYTHGKICSNCKKNVAKPKAKVASPDDCPLVGFYDLIV”, the protein production entry is reported as “failed”.

In the case of “MSVAGLKKQFHKASQLFSEKISGAEGTKLDDEFLDMERKIDVTNKVVAEILSKTTEYLQPNPAYRAKLGMLNTVSKIRGQVKTTGYPQTEGLLGDCMLKYGKELGEDSTFGNALIEVGESMKLMAEVKDSLDINVKQTFIDPLQLLQDKDLKEIGHHLKKLEGRRLDYDYKKKRVGKIPDEEVRQAVEKFEESKELAERSMFNFLENDVEQVSQLAVFIEAALDYHRQSTEILQELQSKLQMRISAASSVPRREYKPRPVKRSSSELNGVSTTSVVKTTGSNIPMDQPCCRGLYDFEPENQGELGFKEGDIITLTNQIDENWYEGMIHGESGFFPINYVEVIVPLPQ”, the protein production result is reported as “failed”.

In the case of “MKVFIIGAAGGIGNRLSSLLHARGDAVSGMHRNLEQASKITDTGATAVLGDLIHNSTEELAELFRGHDAIVFSAGAHGTGQENTTLIDGAGLRKAADAASAANVSRFILVSAFPESSRGENTTENFEHYMKVKKSADVYLSHTDLDWVIVRPGVLQDEAGDGLVTAGLAINYGNVARDNVAAFIDEALHQPQLSKIIVELTDGSTPVAEAVERLIKLEHHHHHH”, the protein production entry is “not failed”.

In the case of “MNSHMLVSSEIDIGLNKSNIERPPGSKKRTKHLPCEVPLAESADRILEPQDYLNFTRFSLGFVETETYDNPRFGGHQTLSERERSYSAVNQTIHCGFVKGTGFDLSEKDRAYMKNCVVSVSSCIFGSSDFLRRPATKKISEFSKRNVCFVMFVDEQTLSKLASEGHVPDKQGFVGLWKTVVVSNLPYNDMRKTGKVPKFLSHRLFPSSRYSIWLDSKMRLTTDPMLIIDFFLWRTKSEFAISNHYDRHCVWDEVLQNKRLNKYNHSAIDEQFMFYRSDGLKKFDPSDPNSPLPSYVPEGSFIVRAHTPMSNLFTCLWFNEVDRFTSRDQLSFAYTYLKLQRLNSDRPLRLNMFKDCERRALTKLFHHRVDSSPPSPPT”, the protein production entry is on record as “not failed”.

On to “TDGEGEDPAEYPTVNHKIEKAIEVTKTGLEEYENPVVMWTGGKDSTLTLYFVKEVAERFDLEVPPVVFIDHYQHFDELIDFVEHWADEWDLDVIWARNEDVGNYVDENGLEPGDDIPVDELSEHNQHHIRNILEYEEDTFPFLLDTYVGNHLLKTVALNDTIEEHDVDGILSGIRWDEQESRADETFFSPRHDPDIYPPHDRIQSILQFAEADVWEAFWNFVVPDTVEGYPDEGYVPQGQDDLPEGIEKEDVPVSPKYFAGFRSLGSE”, for which the protein production result is “failed”.

In the case of “MSLNRRELLERISEYQFACIELNLYLDNNPRDKKALDSYNRYCDKFTQAVCDYESKYGALTNFGYESSEYPWSWISEPWPWDKSFYKLEHHHHHH”, the protein production result was “not failed”.
